{
  "source": "patent US20130045184A1",
  "about": "(published 2013)",
  "binders": {"B1": {"name": "scFv J102 (scFv)", "scFv": "MAEVQLLESGGGLVQPGGSLRLSCAASGFTFSDHDMHWVRQAPGKGLEWVSGISWKSDSMAYRDSVKGRFTISRDNSKNTLYLQMNSLRAEDTAVYYCARDQEHFDFDYWGQGTLVTVSSGSAGGGGSGGGGSGGGGSDIVLTQPPSASGTPGQRVTISCSGSSSNLGSNTVNWYQQLPGKAPKLLIYDNNQRPSGVPDRFSGSKSGTSASLAISGLRSEDEADYYCAAWDDSLSGLVFGTGTKLTVL", "notes": "Human-derived scFv from a phage display library; also called Clone J102"}},
  "target": "T1, sperm FA-1 derived peptide (peptide 1, 35 residue peptide designed from antigen FA-1), biotinylated (biotin at the C-terminus, printed as '(SEQ ID NO: 1) - - - Biotin')",
  "T1 peptide": "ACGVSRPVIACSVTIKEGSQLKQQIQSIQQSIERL",
  "test": "phage ELISA, anti-phage HRP antibody (antibody to PVIII), OD",
  "experimental": "Infected E. coli TG-1 with panning output phages (as described above) were plated to yield individual colonies. These colonies were picked into 100 μl YTAG media in wells of a flat bottom sterile 96-well plate and grown at 30° C. shaker at 150 RPM ON. 10 μl of phage were transferred into a fresh 96-well plate containing 90 μl of YTAG+2.5 μl /ml (5×10⁸ CFU) of M13KO7 helper phage and grown at 37° C. without shaking for 30 min following shaking at 150 RPM for 30 minutes. Plates were centrifuged at 4000 RPM for 5 minutes at 14° C. and the supernatant was discarded. 200 μl /well of YTAK (with Kanamycin) was added and the plate was left to grow at 30° C. shaker at 150 RPM overnight. The bacteria plate was then centrifuged at 4000 RPM for 5 minutes at 4° C. and 100 μl of the supernatant mixed with 100 μl of PBST was used for the ELISA.\n100 μl /well of antigen and control antigen were plated in ELISA plates at 4° C. overnight to coat the plates. The ELISA plates were washed once with washing buffer (300 μl/well of PBST) and blocked with 3% milk/PBS for 1 hr at room temperature (RT). […] The reaction was then stopped with […] of 1 M HCL solution plates were read plates at […]. Detection was achieved using a horseradish peroxidase (HRP)-tagged anti-phage antibody and the color resulting from the substrate-enzyme reaction was read with an automated ELISA reader.",
  "data": [
    {"binder": "B1", "values": [
      {"measurement": "binding result", "result": "binds"}
    ]}
  ]
}
